Drawing on US20130177579A1 (BIOALLIANCE C V, published 2013), this text covers % positive cell binding, MFI and % of gated cells for three substances.

The target of experiment [1] is human transferrin receptor expressed by normal human cells (RBC, PMN, lymphocytes, monocytes, platelets, HUVEC) (human) (UniProt P02786). Nature of the experiment: FACS, lymphocytes, donor D016. (In general: In flow cytometry, cells or beads pass a laser one at a time.)
The target in experiment [2] is human transferrin receptor expressed by nonhematopoietic cancer cells (human) (UniProt P02786). Nature of the experiment: FACS, KLE cells, 5 ug.
Sequence of human transferrin receptor expressed by nonhematopoietic cancer cells (human) (P02786 whole entry G142S): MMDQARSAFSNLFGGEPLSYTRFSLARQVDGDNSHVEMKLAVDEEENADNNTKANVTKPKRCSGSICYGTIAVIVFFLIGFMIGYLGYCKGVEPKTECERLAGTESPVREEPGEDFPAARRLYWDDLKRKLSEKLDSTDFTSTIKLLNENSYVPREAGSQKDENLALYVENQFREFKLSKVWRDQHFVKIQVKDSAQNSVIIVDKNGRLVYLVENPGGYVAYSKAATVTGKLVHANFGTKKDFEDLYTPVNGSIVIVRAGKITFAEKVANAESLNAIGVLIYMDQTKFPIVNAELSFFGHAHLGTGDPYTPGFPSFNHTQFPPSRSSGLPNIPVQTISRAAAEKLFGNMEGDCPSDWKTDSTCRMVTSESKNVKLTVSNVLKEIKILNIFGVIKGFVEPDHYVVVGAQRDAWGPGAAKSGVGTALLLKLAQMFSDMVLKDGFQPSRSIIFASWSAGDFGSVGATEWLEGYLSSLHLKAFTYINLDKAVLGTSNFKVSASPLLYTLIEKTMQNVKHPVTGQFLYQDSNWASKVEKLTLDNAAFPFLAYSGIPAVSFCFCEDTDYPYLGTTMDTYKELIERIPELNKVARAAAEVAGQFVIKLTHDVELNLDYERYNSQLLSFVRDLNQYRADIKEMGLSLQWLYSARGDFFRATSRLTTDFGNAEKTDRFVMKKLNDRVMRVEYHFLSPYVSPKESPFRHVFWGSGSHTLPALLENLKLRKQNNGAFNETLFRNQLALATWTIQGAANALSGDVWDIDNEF
For experiment [3] the target is unchanged. Description: FACS, SK-OV-3 cells, 5 ug.
The target is the same in experiment [4]. Description: FACS, Kato III cells, 5 ug.
For experiment [5] the target is unchanged. Description: FACS, WiDr cells, 5 ug.
Experiment [6] concerns the target human transferrin receptor expressed by normal human cells (RBC, PMN, lymphocytes, monocytes, platelets, HUVEC) (human) (UniProt P02786). Description: FACS, lymphocytes, donor D102.
Experiment [7] addresses human transferrin receptor expressed by nonhematopoietic cancer cells (human) (UniProt P02786). Description: FACS, HEC-1-A cells, 5 ug.
The target is the same in experiment [8]. Nature of the experiment: FACS, H358 cells, 5 ug.
For experiment [9] the target is unchanged. Description: FACS, DU145 cells, 5 ug.
Experiment [10] addresses human transferrin receptor expressed by normal human cells (RBC, PMN, lymphocytes, monocytes, platelets, HUVEC) (human) (UniProt P02786). Nature of the experiment: FACS, lymphocytes, donor D005.
For experiment [11] the target is unchanged. Description: FACS, monocytes, donor D005.
For experiment [12] the target is unchanged. Description: FACS, RBC, donor D102.
Experiment [13] concerns the target human transferrin receptor expressed by nonhematopoietic cancer cells (human) (UniProt P02786). Description: FACS, Panc02.03B cells, 5 ug.
In experiment [14] the target is human transferrin receptor expressed by normal human cells (RBC, PMN, lymphocytes, monocytes, platelets, HUVEC) (human) (UniProt P02786). Nature of the experiment: FACS, HUVEC, 5 ug/ml.
In experiment [15] the target is human transferrin receptor expressed by nonhematopoietic cancer cells (human) (UniProt P02786). Description: FACS, SU.86.86 cells, 5 ug.
Experiment [16] shares this target. Nature of the experiment: FACS, OMC-3 cells, 5 ug.
For experiment [17] the target is unchanged. Nature of the experiment: FACS, H727 cells, 5 ug.
Experiment [18] deals with human transferrin receptor expressed by normal human cells (RBC, PMN, lymphocytes, monocytes, platelets, HUVEC) (human) (UniProt P02786). Nature of the experiment: FACS, PMN, donor D102.
Experiment [19] has the same target. Nature of the experiment: FACS, monocytes, donor D016.
Experiment [20] deals with human transferrin receptor expressed by nonhematopoietic cancer cells (human) (UniProt P02786). Nature of the experiment: FACS, A549 cells, 5 ug.
The target in experiment [21] is human transferrin receptor expressed by normal human cells (RBC, PMN, lymphocytes, monocytes, platelets, HUVEC) (human) (UniProt P02786). Nature of the experiment: FACS, platelets, donor D102.
In experiment [22] the target is human transferrin receptor expressed by nonhematopoietic cancer cells (human) (UniProt P02786). Nature of the experiment: FACS, H520 cells, 5 ug.
Experiment [23] concerns the target human transferrin receptor expressed by normal human cells (RBC, PMN, lymphocytes, monocytes, platelets, HUVEC) (human) (UniProt P02786). Description: FACS, platelets, donor D005.
Experiment [24] shares this target. Nature of the experiment: FACS, PMN, donor D005.
For experiment [25], the target named is human transferrin receptor expressed by nonhematopoietic cancer cells (human) (UniProt P02786). Nature of the experiment: FACS, PC3 cells, 5 ug.
For experiment [26] the target is unchanged. Nature of the experiment: FACS, Hep 3B2.1-7 cells, 5 ug.
For experiment [27], the target named is human transferrin receptor expressed by normal human cells (RBC, PMN, lymphocytes, monocytes, platelets, HUVEC) (human) (UniProt P02786). Description: FACS, RBC, donor D005.
In experiment [28] the target is human transferrin receptor expressed by nonhematopoietic cancer cells (human) (UniProt P02786). Description: FACS, COLO205 cells, 5 ug.
Experiment [29] shares this target. Description: FACS, SNU-16 cells, 5 ug.
Experiment [30] concerns the target human transferrin receptor expressed by normal human cells (RBC, PMN, lymphocytes, monocytes, platelets, HUVEC) (human) (UniProt P02786). Nature of the experiment: FACS, platelets, donor D014.
The target in experiment [31] is human transferrin receptor expressed by nonhematopoietic cancer cells (human) (UniProt P02786). Description: FACS, MDA-MB-453 cells, 5 ug.
The target of experiment [32] is human transferrin receptor expressed by normal human cells (RBC, PMN, lymphocytes, monocytes, platelets, HUVEC) (human) (UniProt P02786). Nature of the experiment: FACS, PMN, donor D016.
Experiment [33] shares this target. Nature of the experiment: FACS, monocytes, donor D014.
For experiment [34] the target is unchanged. Nature of the experiment: FACS, RBC, donor D014.
Experiment [35] shares this target. Nature of the experiment: FACS, lymphocytes, donor D014.
The target of experiment [36] is human transferrin receptor expressed by nonhematopoietic cancer cells (human) (UniProt P02786). Nature of the experiment: FACS, DLD-1 cells, 5 ug.
Experiment [37] has the same target. Description: FACS, Panc-1 cells, 5 ug.
Experiment [38] addresses human transferrin receptor expressed by normal human cells (RBC, PMN, lymphocytes, monocytes, platelets, HUVEC) (human) (UniProt P02786). Nature of the experiment: FACS, platelets, donor D016.
The target of experiment [39] is human transferrin receptor expressed by nonhematopoietic cancer cells (human) (UniProt P02786). Nature of the experiment: FACS, Hep G2 cells, 5 ug.
The target of experiment [40] is human transferrin receptor expressed by normal human cells (RBC, PMN, lymphocytes, monocytes, platelets, HUVEC) (human) (UniProt P02786). Description: FACS, RBC, donor D016.
Experiment [41] shares this target. Nature of the experiment: FACS, PMN, donor D014.
Experiment [42] deals with human transferrin receptor expressed by nonhematopoietic cancer cells (human) (UniProt P02786). Nature of the experiment: FACS, 22Rv1 cells, 5 ug.
Experiment [43] has the same target. Description: FACS, NCI-N87 cells, 5 ug.
Experiment [44] concerns the target human transferrin receptor expressed by normal human cells (RBC, PMN, lymphocytes, monocytes, platelets, HUVEC) (human) (UniProt P02786). Nature of the experiment: FACS, monocytes, donor D102.
Experiment [45] concerns the target human transferrin receptor expressed by Jurkat cells (human) (UniProt P02786). Description: FACS, Jurkat cells, 1 ug.
Experiment [46] has as its target human CD41a on platelets (human) (UniProt P08514). Nature of the experiment: FACS, platelets, donor D016, positive control.
Experiment [47] has the same target. Description: FACS, platelets, donor D005, positive control.
For experiment [48] the target is unchanged. Nature of the experiment: FACS, platelets, donor D014, positive control.
For experiment [49] the target is unchanged. Description: FACS, platelets, donor D102, positive control.

Sequence of human CD41a on platelets (human) (P08514 32-1039): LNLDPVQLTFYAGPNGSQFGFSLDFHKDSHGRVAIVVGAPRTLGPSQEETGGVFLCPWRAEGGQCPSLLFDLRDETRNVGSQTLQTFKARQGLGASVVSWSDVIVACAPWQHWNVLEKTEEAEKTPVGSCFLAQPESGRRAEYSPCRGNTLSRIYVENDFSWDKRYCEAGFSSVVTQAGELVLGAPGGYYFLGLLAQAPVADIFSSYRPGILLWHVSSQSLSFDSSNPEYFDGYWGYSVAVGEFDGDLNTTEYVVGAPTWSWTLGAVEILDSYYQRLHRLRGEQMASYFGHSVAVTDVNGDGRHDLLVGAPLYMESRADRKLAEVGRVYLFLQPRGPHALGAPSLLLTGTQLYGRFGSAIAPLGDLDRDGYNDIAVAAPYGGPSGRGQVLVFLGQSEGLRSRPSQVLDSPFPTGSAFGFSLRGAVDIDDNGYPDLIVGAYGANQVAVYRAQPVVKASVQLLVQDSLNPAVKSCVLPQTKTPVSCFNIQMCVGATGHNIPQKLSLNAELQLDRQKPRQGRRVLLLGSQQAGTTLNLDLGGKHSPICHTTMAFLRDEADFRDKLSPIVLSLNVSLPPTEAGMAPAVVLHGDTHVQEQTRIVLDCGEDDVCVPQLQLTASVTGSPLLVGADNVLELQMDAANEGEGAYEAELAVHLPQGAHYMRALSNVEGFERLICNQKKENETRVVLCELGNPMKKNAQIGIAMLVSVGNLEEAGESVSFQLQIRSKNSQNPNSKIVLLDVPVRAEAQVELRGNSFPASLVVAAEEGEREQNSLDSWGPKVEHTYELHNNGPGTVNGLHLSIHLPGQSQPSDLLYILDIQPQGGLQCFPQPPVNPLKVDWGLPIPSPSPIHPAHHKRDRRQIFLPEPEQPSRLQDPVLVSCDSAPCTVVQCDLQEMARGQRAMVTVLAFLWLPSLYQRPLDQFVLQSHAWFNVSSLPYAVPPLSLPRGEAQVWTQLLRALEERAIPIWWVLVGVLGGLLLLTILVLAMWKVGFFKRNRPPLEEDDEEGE
Sequence of human transferrin receptor expressed by normal human cells (RBC, PMN, lymphocytes, monocytes, platelets, HUVEC) (human) (P02786 whole entry G142S): as the sequence (P02786 whole entry G142S) above
Sequence of human transferrin receptor expressed by Jurkat cells (human) (P02786 whole entry G142S): as above

As for “isotype control mouse IgM, kappa (BD Pharmingen Cat. No. 557275) (antibody)”, the % positive cell binding in experiment [1] is 1%; in experiment [6] it was 3%; in experiment [10], 4%; in [11] it was 3%; in experiment [12] it was < 1%; in experiment [14] it was 1%. For the same substance, the % positive cell binding in experiment [18] was < 1%; in experiment [19] it was 1%; in [21] it was < 1%; in [23], < 1%; in experiment [24] it was < 1%; in experiment [27], < 1%. Besides, the % positive cell binding in experiment [30] is < 1%; in experiment [32], < 1%; in experiment [33] it was < 1%; in [34], < 1%; in experiment [35], 1%; in experiment [38], < 1%. Also, the % positive cell binding in experiment [40] was < 1%; in [41], < 1%; in [44], 2%. Further, the MFI in [2] stood at 10 MFI; in experiment [3] it was 5 MFI; in [4], 7 MFI; in experiment [5], 5 MFI; in experiment [7], 13 MFI; in experiment [8], 4 MFI. Also, the MFI was found to be 4 MFI in experiment [9]; 5 MFI in experiment [13]; 6 MFI in experiment [15]; 16 MFI in experiment [16]; 9 MFI in experiment [17]; 8 MFI in [20]. Further, the MFI in experiment [22] amounted to 5 MFI; in [25], 3 MFI; in experiment [26] it was 5 MFI; in experiment [28], 3 MFI; in [29], 5 MFI; in experiment [31], 4 MFI. Also, the MFI was 5 MFI in [36]; 6 MFI in experiment [37]; 4 MFI in experiment [39]; 7 MFI in [42]; 33 MFI in experiment [43].

Take “anti-human transferrin receptor antibody MEM189 (Abcam Cat. No. ab1086)”: in experiment [45], the % of gated cells stood at 100%.

As for “PE-conjugated anti-human CD41a (Southern Biotech Cat. No. 9391-09) (antibody)”, the % positive cell binding was 95% in experiment [46], 79% in experiment [47], 97% in experiment [48] and 78% in experiment [49].
